Data as given in paper PMC9574934, “Targeting the Phosphatidylserine-Immune Checkpoint with a Small-Molecule Maytansinoid Conjugate” (Journal of Medicinal Chemistry, 2022).
“Also recorded” adds a separate entry of the source.

What was measured:
[1] = Single intravenous dose pharmacokinetic study
Protocol: (§1) Six-week-old male ICR mice, from the Biolasco Taiwan, were divided into groups of three and dosed at 5 mg/kg intravenously. Blood samples were drawn from each animal at time points of 0.003, 0.083, 0.25, 0.5, 1, 2, 4, 6, 8, and 24 h and stored on ice (0–4 °C). With centrifugation (3000 rpm for 15 min at 4 °C in a Beckman Model Allegra 6R centrifuge), plasma was separated from the blood and stored in frozen conditions (−20 °C). […] The mice were sacrificed, and the blood samples of 0.5 mL each and tumor samples were collected at 0.5, 2, 6, 24, 72, and 168 h after administration. Each time point group included 4 mice. Mouse blood samples were collected in EDTA tubes and centrifuged at 13,000 rpm for 5 min at 4°C for plasma collection. Plasma and the harvested tumor samples were stored at −80°C until use. Fifty microliters of mouse plasma or the sample of tumor homogenated in ddH2O with dilution ratio of 1:3 (w/v) by MiniBeadbeater-16 (BioSpec Products Inc., OK, USA) was mixed with 100 μL of acetonitrile containing 250 ng/mL BPR0L187. The mixture was vortexed for 30 s and then centrifuged at 15000g for 20 min. The supernatant was transferred to a clean tube, and 15 μL of the supernatant was injected onto LC/MS/MS. Plasma samples were analyzed by liquid chromatography tandem mass spectrometry (LC/MS/MS). The chromatographic system Agilent 1200 series LC system and an Agilent ZORBAX Eclipse XDB-C8 column (5 μm, 3.0 × 150 mm) interfaced to an MDS Sciex API4000 tandem mass spectrometer equipped with an ESI in the positive scanning mode at 600 °C was used. Data acquisition was collected via multiple reactions monitoring (MRM). A gradient system was employed for the separation of analyte and IS. Mobile phase A was 10 mM ammonium acetate aqueous solution containing 0.1% formic acid. Mobile phase B was acetonitrile. The gradient profile was as follows: 0.0–1.1 min, 50% B; 1.2–3.7 min, 55%B–90%B; 3.8–5.0 min, 90%B–50%B. The flow rate was 1.5 mL/min. The autosampler was programmed to inject 15 μL of the sample every 5 min.

[2] = Protocol: as §1, with “The chromatographic system Agilent 1200 series LC system and an Agilent ZORBAX Eclipse XDB-C8 column (5 μm, 3.0 × 150 mm) interfaced to an MDS Sciex API4000 tandem mass spectrometer equipped with an ESI in the positive scanning mode at 600 °C was used. Data acquisition was collected via multiple reactions monitoring (MRM). A gradient system was employed for the separation of analyte and IS. Mobile phase A was 10 mM ammonium acetate aqueous solution containing 0.1% formic acid. Mobile phase B was acetonitrile. The gradient profile was as follows: 0.0–1.1 min, 50% B; 1.2–3.7 min, 55%B–90%B; 3.8–5.0 min, 90%B–50%B. The flow rate was 1.5 mL/min. The autosampler was programmed to inject 15 μL of the sample every 5 min.” left out
[3] = Plasma incubation and tumor homogenate cleavage of conjugate; assay type: in vitro ADME
Description: Figure 3 In vivo targeting ability, plasma stability, and in vivo biodistribution of modified zinc dipicolylamine conjugates in subcutaneous HCC1806 tumor xenografts. […] (B) In vivo detection of PS-expression in the HCC1806 tumor xenograft model. Representative IVIS images of new Zn11-794 fluorescence probe in mice.

[4] = tested on: MIA PaCa-2 human xenografts; test: MIA PaCa-2 xenograft antitumor efficacy; conditions: 1 mg/kg intravenously twice weekly for two weeks (Figure 4)
Protocol: (§2) Cancer cells, suspending in phenol red free medium/DPBS, were mixed with Matrigel (356237, BD Biosciences, San Jose CA, USA) in a 1:1 ratio. Human pancreatic cancer MIA PaCa-2 (1 × 10^6 cells) or triple-negative breast cancer HCC1806 (1 × 10^6cells) cells were subcutaneously inoculated to left flanks of male nude mice 6 weeks old (Biolasco, Taiwan) or female nude mice 6 weeks old by using a 1 mL syringe (needle 24G × 1 in., 0.55 × 25 mm; TERUMO). Tumor dimensions were measured twice a week with an electronic caliper (FOW54-200-777, PRO-MAX, Newton, Massachusetts, USA), and the volume of the subcutaneously growing tumor in mm^3 was calculated by the following formula: volume = (length × width[2])/2. Conjugates were formulated 10% DMA/20% Cremophor EL/70% injectable solution of 5% dextrose (D5W) for treating MIA PaCa-2 and HCC1806 xenograft tumors. […] Body weight of the mice and tumor volume were measured twice weekly.

[5] = tested on: HCC1806 triple-negative breast cancer (TNBC) xenografts
Protocol: as §2

[6] = tested on: HCC tumor microenvironment; conditions: HCC model
Protocol: (§3) In addition, a previously reported oncogene-induced, sorafenib-resistant HCC mouse model[50] was used in the current study to examine the antitumor activities of synthesized compounds. Male C57BL/6j mice 4–5 weeks old were purchased from the National Laboratory Animal Center (Taipei, Taiwan) and kept in the laboratory animal center (LAC) of NHRI. The mice received 2 μg of pCMV(CAT)T7-SB100 (Addgene #34879), 10 μg of pT/Caggs-NRASV12 (Addgene #20205), and 10 μg of pKT2/CLP-AKT-LUC plasmids through hydrodynamic injection and were monitored for tumor growth weekly using IVIS until the development of HCC in the liver. The animal study was reviewed and approved by the NHRI IACUC (Institutional Animal Care and Use Committee). HCC-bearing mice with the total flux from IVIS imaging above 1 × 10^9 photons/s were used for treatment of conjugates. […] Repetitive IVIS imaging was performed to track tumor progression, and tumor tissues of the treated HCC-bearing mice were collected at day 3, day 7, and day 14 post conjugate administrations for histological examination and RNA extraction. The tumor tissues of vehicle-treated HCC-bearing mice were collected at day 14 post treatment to serve as control samples.

[7] = tested on: sorafenib-resistant hepatocellular carcinoma (HCC) model
Protocol: as §3

[8] = rats, 1 mg/kg i.v. once a week for 4 weeks
Protocol: The animal body weights were measured daily during the study period. At the end of the study on day 29, all the animals were euthanized with 100% CO2 and sacrificed for organ harvest followed by organ weight measurements and for blood sample collection followed by hematology and serum chemistry assays. Hematology and serum chemistry parameters were determined using a HEMAVET 950 automated analyzer (Drew Scientific, Santa Clara, CA, USA) and a FUJI DRI-CHEM NX500 automated analyzer (FUJIFILM, Tokyo, Japan), respectively.

[9] = tested on: immunogenic gene expression in the TME; conditions: treated HCC tumor tissue vs vehicle
Protocol: as §3
The concentration (absorbance at 260 nm) and purity (A260/280 and A260/230 ratios) of the extracted RNA were measured by spectrophotometry, and the integrity of the RNA was further determined by a 2100 Bioanalyzer system (Agilent Technologies). The RNA, hybridized with barcoded probes (NanoString Technologies) provided in the nCounter Mouse PanCancer Immune Profiling panel kit, was then used for measurement of the mRNA expression of 770 genes related to immune responses. Nanostring nSolver 4.0 and nCounter advanced analysis 2.0 software (NanoString Technologies) were used for data processing, immune cell profiling, and pathway scoring according to developer’s instructions.

[10] = tested on: ovarian, skin, and oral cancer cell lines; conditions: Figure S2

## CCCCCC(=O)Nc1cccc(CN(Cc2cc(CN(Cc3ccccn3)Cc3cccc(NC(=O)CCCCC)n3)cc(OCCCCN(Cc3ccc(-c4ccccc4)cc3)C(=O)COCCOCCOCC(=O)NCc3ccc(CNC(=O)CCSSCCC(=O)N(C)[C@@H](C)C(=O)O[C@H]4CC(=O)N(C)c5cc(cc(OC)c5Cl)C/C(C)=C/C=C\[C@@H](OC)[C@@]5(O)C[C@H](OC(=O)N5)[C@@H](C)[C@@H]5O[C@@]45C)cc3)c2)Cc2ccccn2)n1.O=[N+]([O-])[O-].O=[N+]([O-])[O-].O=[N+]([O-])[O-].O=[N+]([O-])[O-].[Zn+2].[Zn+2] [Compound 40a]
[1]; 40a compared with conjugates 30 and 36
  decrease in volume distribution (Vss): 5 fold
[1]; intact conjugate, male ICR mice, 5 mg/kg intravenous
  AUC(0-24 hr) Conjugate: 105,599 ng/mL*hr
[1]; male ICR mice, 5 mg/kg intravenous, n = 3
  CL: 0.9 mL/min/kg
[1]; male ICR mice, 5 mg/kg intravenous, n = 3, 5 mg/kg
  Vss: 0.1 L/kg
[1]; released payload 14, male ICR mice, 5 mg/kg intravenous of conjugate
  AUC(0-24 hr) Drug: 305 ng·h/mL
[2]; plasma of HCC1806 tumor-bearing mice
  plasma stability in vivo, detection of released 14: negligible detection of 14
[2]; tumor tissue of HCC1806 tumor-bearing mice
  14 released from 40a in the tumor mass: significant time-dependent increase
[3]; plasma
  stability in plasma incubation: stable
[3]; tumor homogenate
  cleavage with tumor homogenates: readily cleaved
[4]
  antitumor efficacy: potent antitumor efficacies; also recorded: potent and lasting anti-MIA PaCa-2 activity
  body weight change during treatment: without apparent body weight loss
[5]; intravenous twice per week (Figure 4B)
  antitumor efficacy against HCC1806 TNBC xenografts: potent antitumor efficacy
[5]; larger (400–800 mm^3) tumors, 2.5 mg/kg once per week for three weeks
  efficacy on larger HCC1806 tumors: potent efficacies and shrinkage
[6]; 1 mg/kg i.v.
  Ki67 expression in treated tumors: reduction
[6]; IHC staining
  infiltration of Gr-1+ monocytes and polymorphonuclear granulocytes and F4/80+ macrophages: increased infiltration
[6]; days 3, 7, and 14
  cytotoxic CD8+ T-cell infiltration: significant increase
[7]; 1 mg/kg i.v. twice weekly for two weeks
  tumor burden by bioluminescence: significant decrease
[7]; 1 mg/kg injected twice weekly for two weeks
  activity against HCC tumor growth: potent activity
[7]; 14 days after treatment
  total liver weight: marked reduction
[8]
  BUN and creatinine levels: normal
  GOT and GPT: slightly increased (not significant)
  hematologic (leukocyte, neutrophil, lymphocyte, and platelet) parameters: normal
  organ weights (liver and kidneys): did not alter organ weights
[9]
  gene expression of CCL2: significantly elevated
  gene expression of CCL5 and CXCL10: Significant increases
  gene expression of STAT1: significantly elevated
[9]; n = 3
  T-cell, macrophage, NK cell, chemokine and receptor functions and inflammation score (gene set analysis): striking elevations
[10]
  potency against ovarian, skin, and oral cancer cell lines: highly potent
